Experimental data as given in the supplement of paper PMC9112550, “Optimization of the antimicrobial peptide Bac7 by deep mutational scanning” (BMC Biology, 2022).

tested on: Escherichia coli TOP10; assay: shrunken log2 fold change of peptide-encoding DNA abundance (4.5 h post-induction vs induction); higher = less antimicrobial activity (less host growth inhibition); conditions: time post-induction: 4.5 h; library: site-saturation at positions 5, 18, 19, 20
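Further: peptides expressed intracellularly from a pBAD plasmid library in pooled LB shake-flask culture, induced with 0.3% L-arabinose, DNA abundance read by NGS, three biological replicates, DESeq2 with apeglm shrinkage.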

Row | Sequence | shrunken log2 fold change
1 | RRIRSRPPRLPRPRPRPQYSPRP | -0.165
2 | RRIRGRPPRLPRPRPRPIDSPRP | 0.00395
3 | RRIRFRPPRLPRPRPRPSTKPRP | 0.0858
4 | RRIRGRPPRLPRPRPRPQQCPRP | 0.13
5 | RRIRLRPPRLPRPRPRPWHVPRP | -0.121
6 | RRIRMRPPRLPRPRPRPAYVPRP | -0.114
7 | RRIRKRPPRLPRPRPRPQLNPRP | 0.0489
8 | RRIRFRPPRLPRPRPRPWMWPRP | -0.0253
9 | RRIRCRPPRLPRPRPRPWVRPRP | -0.0386
10 | RRIRSRPPRLPRPRPRPCLHPRP | -0.0514
11 | RRIRMRPPRLPRPRPRPSPFPRP | 0.124
12 | RRIRWRPPRLPRPRPRPFVSPRP | -0.135
13 | RRIRNRPPRLPRPRPRPTCHPRP | -0.643
14 | RRIRGRPPRLPRPRPRPQHPPRP | 0.426
15 | RRIRVRPPRLPRPRPRPIGPPRP | -0.0936
16 | RRIRGRPPRLPRPRPRPKFTPRP | 0.12
17 | RRIRERPPRLPRPRPRPWEEPRP | -0.0572
18 | RRIRRRPPRLPRPRPRPISQPRP | -0.395
19 | RRIRIRPPRLPRPRPRPLWMPRP | -0.303
20 | RRIRYRPPRLPRPRPRPRSYPRP | -0.879
21 | RRIRDRPPRLPRPRPRPDTQPRP | 0.419
22 | RRIRFRPPRLPRPRPRPLTRPRP | -0.0631
23 | RRIRWRPPRLPRPRPRPWKSPRP | 0.0574
24 | RRIRCRPPRLPRPRPRPHGRPRP | 0.0979
25 | RRIRGRPPRLPRPRPRPLDRPRP | 0.732

Row | Sequence | shrunken log2 fold change
26 | RRIRLRPPRLPRPRPRPYEFPRP | -0.111
27 | RRIRTRPPRLPRPRPRPYQIPRP | -0.0573
28 | RRIRGRPPRLPRPRPRPYSEPRP | -0.093
29 | RRIRFRPPRLPRPRPRPQQRPRP | 0.061
30 | RRIRWRPPRLPRPRPRPRMFPRP | 0.182
31 | RRIRIRPPRLPRPRPRPIRKPRP | -0.0303
32 | RRIRPRPPRLPRPRPRPMSAPRP | 0.0743
33 | RRIRYRPPRLPRPRPRPGANPRP | -0.0888
34 | RRIRRRPPRLPRPRPRPCYDPRP | -0.194
35 | RRIRPRPPRLPRPRPRPWTMPRP | 0.0177
36 | RRIRPRPPRLPRPRPRPPKQPRP | 0.066
37 | RRIRTRPPRLPRPRPRPKCKPRP | 0.0156
38 | RRIRHRPPRLPRPRPRPMFKPRP | -0.625
39 | RRIRTRPPRLPRPRPRPLWQPRP | 0.0687
40 | RRIRCRPPRLPRPRPRPVVVPRP | -0.203
41 | RRIRLRPPRLPRPRPRPLSDPRP | 0.0376
42 | RRIRVRPPRLPRPRPRPPDNPRP | -0.00642
43 | RRIRVRPPRLPRPRPRPIMYPRP | -0.514
44 | RRIRYRPPRLPRPRPRPHGHPRP | -0.358
45 | RRIRQRPPRLPRPRPRPPKVPRP | 2.65e-05
46 | RRIRERPPRLPRPRPRPPAYPRP | -0.173
47 | RRIRCRPPRLPRPRPRPHYKPRP | -0.894
48 | RRIRNRPPRLPRPRPRPHGWPRP | 0.127
49 | RRIRQRPPRLPRPRPRPFSLPRP | 0.14
50 | RRIRERPPRLPRPRPRPEKHPRP | -0.13

Row | Sequence | shrunken log2 fold change
51 | RRIRIRPPRLPRPRPRPQEEPRP | 0.0133
52 | RRIRQRPPRLPRPRPRPDFSPRP | 0.0756
53 | RRIRYRPPRLPRPRPRPGPPPRP | 0.277
54 | RRIRDRPPRLPRPRPRPWDMPRP | -0.133
55 | RRIRLRPPRLPRPRPRPAYMPRP | -0.275
56 | RRIRARPPRLPRPRPRPTYCPRP | -0.119
57 | RRIRRRPPRLPRPRPRPFYTPRP | -0.327
58 | RRIRWRPPRLPRPRPRPCQFPRP | -0.00192
59 | RRIRYRPPRLPRPRPRPKTSPRP | -0.595
60 | RRIRVRPPRLPRPRPRPNRKPRP | -0.0231
61 | RRIRYRPPRLPRPRPRPLCYPRP | -1
62 | RRIRIRPPRLPRPRPRPWNYPRP | 0.0299
63 | RRIRGRPPRLPRPRPRPWPKPRP | 0.199
64 | RRIRMRPPRLPRPRPRPKAPPRP | 1.42
65 | RRIRCRPPRLPRPRPRPGMLPRP | -0.135
66 | RRIRDRPPRLPRPRPRPAHQPRP | 0.516
67 | RRIRKRPPRLPRPRPRPEGHPRP | 0.0594
68 | RRIRRRPPRLPRPRPRPCAKPRP | 0.164
69 | RRIRIRPPRLPRPRPRPKNCPRP | -0.164
70 | RRIRARPPRLPRPRPRPLVSPRP | 0.653
71 | RRIRKRPPRLPRPRPRPGTGPRP | 0.1
72 | RRIRARPPRLPRPRPRPHSSPRP | -0.137
73 | RRIRNRPPRLPRPRPRPCAAPRP | 0.0594
74 | RRIRERPPRLPRPRPRPNLIPRP | -0.421
75 | RRIRDRPPRLPRPRPRPPKDPRP | 0.314

Row | Sequence | shrunken log2 fold change
76 | RRIRWRPPRLPRPRPRPYPQPRP | -0.361
77 | RRIRWRPPRLPRPRPRPIHGPRP | 0.0966
78 | RRIRGRPPRLPRPRPRPFNRPRP | -0.0104
79 | RRIRRRPPRLPRPRPRPFICPRP | -0.0336
80 | RRIRDRPPRLPRPRPRPSYKPRP | -0.208
81 | RRIRQRPPRLPRPRPRPKSPPRP | -0.089
82 | RRIRNRPPRLPRPRPRPFGDPRP | 0.0215
83 | RRIRYRPPRLPRPRPRPHNAPRP | -1.21
84 | RRIRARPPRLPRPRPRPGPNPRP | 0.66
85 | RRIRDRPPRLPRPRPRPNMMPRP | 0.0387
86 | RRIRIRPPRLPRPRPRPKQDPRP | -0.354
87 | RRIRMRPPRLPRPRPRPMGVPRP | 0.06
88 | RRIRNRPPRLPRPRPRPEHCPRP | -0.0139
89 | RRIRPRPPRLPRPRPRPHQKPRP | -0.0717
90 | RRIRYRPPRLPRPRPRPMGIPRP | 0.00902
91 | RRIRPRPPRLPRPRPRPLIEPRP | -0.0879
92 | RRIRARPPRLPRPRPRPDRVPRP | -0.0545
93 | RRIRARPPRLPRPRPRPQVKPRP | 0.136
94 | RRIRERPPRLPRPRPRPKLSPRP | -0.173
95 | RRIRNRPPRLPRPRPRPYRRPRP | -0.281
96 | RRIRMRPPRLPRPRPRPFLKPRP | -0.636
97 | RRIRERPPRLPRPRPRPPIRPRP | -0.0192
98 | RRIRFRPPRLPRPRPRPLVHPRP | -0.298
99 | RRIRMRPPRLPRPRPRPSKHPRP | 0.159
100 | RRIRFRPPRLPRPRPRPVTYPRP | -0.557

Row | Sequence | shrunken log2 fold change
101 | RRIRERPPRLPRPRPRPRDPPRP | 0.0576
102 | RRIRIRPPRLPRPRPRPVPNPRP | -0.00284
103 | RRIRLRPPRLPRPRPRPYWSPRP | -1.41
104 | RRIRERPPRLPRPRPRPEFFPRP | -0.131
105 | RRIRQRPPRLPRPRPRPTFSPRP | -0.0427
106 | RRIRVRPPRLPRPRPRPCFAPRP | 0.116
107 | RRIRCRPPRLPRPRPRPDMIPRP | -0.69
108 | RRIRSRPPRLPRPRPRPLHDPRP | -0.0221
109 | RRIRKRPPRLPRPRPRPPYYPRP | -0.291
110 | RRIRFRPPRLPRPRPRPREPPRP | 0.208
111 | RRIRIRPPRLPRPRPRPYIPPRP | -0.92
112 | RRIRHRPPRLPRPRPRPKLFPRP | 0.0628
113 | RRIRRRPPRLPRPRPRPYNWPRP | -0.734
114 | RRIRARPPRLPRPRPRPSLWPRP | 0.974
115 | RRIRRRPPRLPRPRPRPCQDPRP | -0.275
116 | RRIRCRPPRLPRPRPRPASEPRP | 0.49
117 | RRIRDRPPRLPRPRPRPHCFPRP | 0.00117
118 | RRIRLRPPRLPRPRPRPKPGPRP | 0.396
119 | RRIRIRPPRLPRPRPRPGEQPRP | -0.0156
120 | RRIRWRPPRLPRPRPRPTQNPRP | 0.637
121 | RRIRVRPPRLPRPRPRPDAKPRP | 0.0516
122 | RRIRERPPRLPRPRPRPYRPPRP | -0.41
123 | RRIRDRPPRLPRPRPRPACTPRP | 0.642
124 | RRIRKRPPRLPRPRPRPVLGPRP | 0.977
125 | RRIRSRPPRLPRPRPRPTIQPRP | -0.305

Row | Sequence | shrunken log2 fold change
126 | RRIRHRPPRLPRPRPRPYQAPRP | -0.00987
127 | RRIRVRPPRLPRPRPRPCQPPRP | -0.236
128 | RRIRIRPPRLPRPRPRPDACPRP | 0.183
129 | RRIRWRPPRLPRPRPRPTSPPRP | 0.217
130 | RRIRWRPPRLPRPRPRPYSHPRP | -1.09
131 | RRIRTRPPRLPRPRPRPAHPPRP | 0.396
132 | RRIRCRPPRLPRPRPRPRLLPRP | 0.159
133 | RRIRKRPPRLPRPRPRPANAPRP | 0.426
134 | RRIRRRPPRLPRPRPRPEHKPRP | 0.193
135 | RRIRARPPRLPRPRPRPHREPRP | 0.0826
136 | RRIRSRPPRLPRPRPRPAIYPRP | -1.04
137 | RRIRRRPPRLPRPRPRPPYPPRP | 0.245
138 | RRIRMRPPRLPRPRPRPKMRPRP | 1.21
139 | RRIRLRPPRLPRPRPRPIPTPRP | -0.105
140 | RRIRKRPPRLPRPRPRPASTPRP | 0.53
141 | RRIRLRPPRLPRPRPRPYFYPRP | -0.942
142 | RRIRVRPPRLPRPRPRPALQPRP | 0.0743
143 | RRIRERPPRLPRPRPRPYQFPRP | -0.159
144 | RRIRLRPPRLPRPRPRPETQPRP | 0.00473
145 | RRIRQRPPRLPRPRPRPWPTPRP | 0.00213
146 | RRIRWRPPRLPRPRPRPHDKPRP | 0.0422
147 | RRIRSRPPRLPRPRPRPAAMPRP | 0.852
148 | RRIRQRPPRLPRPRPRPMRWPRP | 0.0431
149 | RRIRVRPPRLPRPRPRPVKDPRP | 0.0828
150 | RRIRHRPPRLPRPRPRPYFEPRP | -0.76
